For one assay, the system named is SJL/J mice. Kind of assay: PLP139-151/CFA R-EAE upon IL-10 or TGFb blockade, clinical score. It counts as in vivo, mouse. As for the experimental part: SJL/J mice were purchased from Harlan and primed with PLP139-151/CFA per the standard protocol, as described in 21.1.2 Methods, above). At disease remission the mice were split into 6 different treatment groups (n=5) as follows:
Mice were treated with Control Ig (mouse IgG2a) or C1ORF32 ECD-Fc (SEQ ID NO:42) at 100 ug/dose, each via an i.p. injection. This was followed with a second i.p. injection on the same day of either anti-IL-10 (rat IgG1), rat IgG1 (control Ab), or anti-TGFβ (mouse IgG1) at 100 ug/dose, each. All treatments were given 3×/wk for 2 wks, beginning on day +20 (onset of disease remission) and until day +31 post disease induction. All mice were followed for disease scores until day 44 post disease induction. On day 44, mice were sacrificed and analyzed for total T cell and Treg cell numbers in spleen and CNS.
At onset of disease remission (day +20 post disease induction) mice were allocated into 6 treatment groups (described above) and treated with either C1ORF32 ECD-Fc (SEQ ID NO:42) or control Ig (mIgG2a), and followed on the same day by treatment with anti-IL-10, anti-TGF-β, or rat IgG1 isotype control. All treatments were given at 100 ug/dose in 100 μl of PBS; via i.p. injection, at 3×/week for 2 weeks from onset of remission.
Mice were followed for disease and scored on a 0-5 scale per standard lab protocol as follows: 0, no abnormality; 1, limp tail; 2, limp tail and hind limb weakness; 3, hind limb paralysis; 4, hind limb paralysis and forelimb weakness; and 5, moribund. Dead mice were scored with a score of 5 on the day of death only, and were not further scored on the next days.

The subject of assay [1] is healthy human skin transplanted onto beige-SCID mice. Kind of assay: Humanized psoriasis model: healthy human skin xenotransplants on beige-SCID mice injected with psoriatic patients' PBMCs. The format is in vivo, mouse. Conditions: IHC, vs PBS treated group. From the text: In this model, psoriasis is induced in xenotransplants of healthy human skin transplanted onto beige severe combined immunodeficiency (SCID) mice followed by intradermal (i.d.) injection of IL-2 enriched Peripheral Blood Mononuclear Cells (PBMCs) isolated from blood of psoriasis patients (Nickoloff, 1995; Wrone-Smith, 1996 Gilhar et al., 2002, 2006, 2011). The activity of these compounds was compared to that of Enbrel, a TNF inhibitor which is an approved biological drug for treatment of psoriasis. As a control for model robustness, we used dexamethasone, a steroid with suppressive effects on inflammatory cytokines and chemokines such as TNF-alpha and interferon-gamma which cause severe psoriasis. All treatments were administered intradermally, except for dexamethasone which was given topically.
Study Protocol: A) Healthy human skin pieces with a width of 0.4 mm and surface area of 1.5×1.5 cm were provided from residual skin of routine plastic surgery procedures from the Plastic Surgery Department of the Rambam Medical Center, Israel. In addition, 20 mL blood samples were taken from psoriatic patients. B) Seventy (70) beige-severe combined immunodeficient mice (SCID) (weight˜20-25 g) were included in this study. Normal healthy human donor skin was transplanted onto the beige-SCID mice as previously described (Nickoloff et al., 1995; Wrone-Smith, 1996; Gilhar et al., 2002, 2006, 2011; Kalish et al., 2009) and the mice were divided into 7 groups. C) Peripheral Blood Mononuclear Cells (PBMCs) isolated from psoriatic patients' blood were cultured in the presence of IL-2 [Prospec, 100 U/mL of RPMI 1640 media, 10% human AB serum (Sigma, St. Louis, Mo.), 1% glutamine, 1% antibiotics (media components; Biological Industries, Kibbutz Beit Haemeck, Israel)] for 14 days, as previously described (Gilhar et al, 2002). D) Four weeks following engraftment, each mouse was injected intra-dermally (i.d.) into the grafted skin lesion, with 1×10^7 activated allogeneic enriched PBMCs from psoriatic patients (FIG. 20). Cells from different psoriasis patients were equally distributed between treatment groups so that each patient is represented in each treatment group. E) On the day of PBMCs injection into the skin grafts, mice were divided randomly into treatment groups (n=9-10 mice per group) and administration of all drugs started (FIG. 20). All tested compounds including the vehicle were given intradermally (intralesional), three times a week, except for dexamethasone which was given topically for 14 consecutive days (Table 3).
F) Twenty eight days after starting the injections and treatment, skin was harvested (FIG. 20). Grafts were analyzed for the following psoriatic parameters by histology: epidermal thickening (acanthosis), suprapapillary epidermal thinning (papillomatosis), hyperkeratosis, parakeratosis, orthokeratosis, agranulosis-hypogranulosis, appearance of neutrophils in the upper spinous layer or in the corneal cell layer—Munro microabscess, regular elongation of rete ridges, angiogenesis, edema and dilated tortuous blood vessels in the dermal papilla and mononuclear cell infiltrate in the papillary dermis. Epidermal thickness was measured as detailed below, and HLA-DR, ICAM-1, Ki-67 and immune infiltrates (anti-CD3 stain) were evaluated by immunohistochemistry (IHC).
The entire skin graft was excised and placed in 10% formal saline overnight. Then, the specimens were place in 70% ethanol and were embedded according to the standard H&E protocol. Histological assessment of the skin grafts was performed by light microscopy and evaluated by two blinded observers [the second observer evaluated random slides (about 25% of all slides) to compare the data obtained by the first observer. […] Epidermal thickness was determined with an ocular micrometer at a minimum of 50 points along the epidermis selected to represent points of maximal and minimal thickness.
Representative grafts were allocated for IHC analysis. […]

The values that follow come from patent publication US20170275344A1, “POLYPEPTIDES AND USES THEREOF AS A DRUG FOR TREATMENT OF AUTOIMMUNE DISORDERS” (Compugen Ltd., priority 2014, published 2017).

B1: C1ORF32 ECD-Fc (SEQ ID NO:42): fusion protein of human C1ORF32 ECD fused to mouse immunoglobulin Fc (human-mouse fusion protein) (protein)
chain: LQVTVPDKKKVAMLFQPTVLRCHFSTSSHQPAVVQWKFKSYCQDRMGESLGMSSTRAQSLSKRNLEWDPYLDCLDSRRTVRVVASKQGSTVTLGDFYRGREITIVHDADLQIGKLMWGDSGLYYCIITTPDDLEGKNEDSVELLVLGRTGLLADLLPSFAVEIMGSENLYFQGSGEPRGPTIKPCPPCKCPAPNLLGGPSVFIFPPKIKDVLMISLSPIVTCVVVDVSEDDPDVQISWFVNNVEVHTAQTQTHREDYNSTLRVVSALPIQHQDWMSGKEFKCKVNNKDLPAPIERTISKPKGSVRAPQVYVLPPPEEEMTKKQVTLTCMVTDFMPEDIYVEWTNNGKTELNYKNTEPVLDSDGSYFMYSKLRVEKKNWVERNSYSCSVVHEGLHNHHTTKSFSRTPGK
modifications: Fusion protein human C1ORF32-ECD fused to mouse IgG2a Fc
On to B1, for which the disease progression entry with SJL/J mice (100 ug/dose i.p. 3x/wk 2 wks from day +20, followed by rIgG1, vs control Abs only) is reported as “pronounced inhibition of disease progression”. In the assay with SJL/J mice (followed by anti-IL-10 100 ug/dose), the “beneficial effect on disease with concomitant anti-IL-10” value is “abrogated the beneficial effect”. In addition, the “beneficial effect on disease with concomitant anti-TGFβ” value in the assay on SJL/J mice (followed by anti-TGFβ 100 ug/dose) was “abrogated the beneficial effect”. Also, the mice found dead in the assay on SJL/J mice (group C1ORF32 ECD-Fc and anti-TGFβ, day 28, n=5) turned out to be 1; in the assay with SJL/J mice (group C1ORF32 ECD-Fc in combination with anti-IL-10, day 28, n=5) it was 2. Further, in assay [1], the “infiltration of T cells (CD3 positive cells)” value is “significant reduction of CD3 positive cells”.
